Assay results: patent US20070009975A1 (DAKOCYTOMATION DENMARK A S, published 2007)

What was measured:
[1] = target: H. pylori urease (oligomeric, purified) (Helicobacter pylori, UniProt P14916 1-238; P69996 1-569); test: SPR (BIAcore), mAb captured by rabbit anti-mouse antibody, H. pylori antigen injected; unit inferred
Method: First, a polyclonal rabbit-anti-mouse antibody was immobilised on the dextran matrix of the BIAcore CM5 glass carrier chip. By adding the first H. pylori antigen-specific monoclonal antibody (1. MAK; 100 μg/ml; 10 μl), it reacted with the immobilised catching antibody and the respective change was measured at the detector (ΔRU₁; RU Resonance Units). After adding the H. pylori antigen (45 μg/ml; 5 μl), it reacted with the first mAK. Then, the remaining free catching antibody was blocked with an unspecific mouse-antibody (1 mg/ml; 10 μl) and oligomeric epitopes by adding another first mAK (100 μg/ml; 10 μl). After the reaction then following of the second H. pylori-antigen-specific antibody (2nd mAK; 100 μg/ml; 10 μl) with the bound antigen, the change in the signal of the detector (ΔRU₂) was determined anew and was compared in percentage to the change at the detector after adding the 1st mAK (ΔRU₂/ΔRU₁). A ratio of ΔRU₂/ΔRU₁<10% indicated overlapping epitopes.

[2] = target: β-urease (large subunit) of H. pylori (Helicobacter pylori, UniProt P69996 1-569); test: sandwich ELISA: polyclonal rabbit anti-H. pylori antigen as catcher, antigen diluted 1:2 from 50 ng/ml, mAb supernatant as detector; lowest antigen concentration with extinction >= 2x control
Sequence of β-urease (large subunit) of H. pylori (P69996 whole entry): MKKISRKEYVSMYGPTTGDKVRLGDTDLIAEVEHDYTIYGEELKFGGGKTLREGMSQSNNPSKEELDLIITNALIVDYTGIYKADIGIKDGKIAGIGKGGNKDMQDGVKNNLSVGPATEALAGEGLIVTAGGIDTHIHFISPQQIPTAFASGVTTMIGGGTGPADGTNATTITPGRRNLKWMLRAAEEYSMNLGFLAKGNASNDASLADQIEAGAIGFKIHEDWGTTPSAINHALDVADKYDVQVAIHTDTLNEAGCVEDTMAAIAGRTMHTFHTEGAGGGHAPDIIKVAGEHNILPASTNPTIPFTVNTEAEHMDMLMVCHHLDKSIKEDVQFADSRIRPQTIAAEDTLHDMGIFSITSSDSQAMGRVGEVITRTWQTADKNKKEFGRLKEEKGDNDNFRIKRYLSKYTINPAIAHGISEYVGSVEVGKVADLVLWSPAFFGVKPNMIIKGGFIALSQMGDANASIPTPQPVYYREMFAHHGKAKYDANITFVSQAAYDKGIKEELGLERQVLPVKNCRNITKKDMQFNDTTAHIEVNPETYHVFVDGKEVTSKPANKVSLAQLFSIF
Method: (§1) Between the single steps the ELISA plate was washed 2 to 3 times with 300 μl PBS with 0.025% Tween (washing buffer) (vol.:vol.). The ELISA plates (MaxiSorb; Nunc) were coated for 1 hour at 37° C. with 100 μl of a solution of a polyclonal rabbit-anti-H. pylori antigen (pAK; approx. 10 μg antibody/ml carbonate buffer, 0.1 M, pH 9.5). In order to block the binding-sites that are still free 200 μl 150 mM PBS with 2% skimmed-milk powder (weight:volume) were pipetted per dish and incubated for 30 min at room temperature. 50 ng/ml purified H. pylori antigens solved in 150 mM PBS were diluted adding 0.1% skimmed-milk powder in 1:2 steps. The buffer served as a negative control. Then, 100 μl culture supernatant diluted 1:10 of the mAK against the same antigen, which is to be analysed, was added and incubated for 30 for 60 min at room temperature. […] The lowest concentration in which an extinction was still detected that was larger than or the same as twice the control was accepted as detection limit.

[3] = target: T1, alkylhydroperoxide-reductase of H. pylori (26 kDa-protein) (Helicobacter pylori, UniProt P21762 1-198); test: as above
T1 construct: Purified as an oligomer; also called 26 kDa-antigen; Alkylhydroperoxide reduktase
T1 sequence (looked up): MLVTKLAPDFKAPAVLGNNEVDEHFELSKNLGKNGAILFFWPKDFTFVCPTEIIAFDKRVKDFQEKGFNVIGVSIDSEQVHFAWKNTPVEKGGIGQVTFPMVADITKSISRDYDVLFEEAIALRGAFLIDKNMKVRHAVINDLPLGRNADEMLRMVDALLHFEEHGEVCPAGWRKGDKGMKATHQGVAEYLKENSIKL
Method: as §1

Hsp60 of H. pylori = target: T2, Hsp60 of H. pylori (Helicobacter pylori, UniProt P42383 1-546); test: as above
T2 construct: Purified as an oligomer
T2 sequence (P42383 whole entry): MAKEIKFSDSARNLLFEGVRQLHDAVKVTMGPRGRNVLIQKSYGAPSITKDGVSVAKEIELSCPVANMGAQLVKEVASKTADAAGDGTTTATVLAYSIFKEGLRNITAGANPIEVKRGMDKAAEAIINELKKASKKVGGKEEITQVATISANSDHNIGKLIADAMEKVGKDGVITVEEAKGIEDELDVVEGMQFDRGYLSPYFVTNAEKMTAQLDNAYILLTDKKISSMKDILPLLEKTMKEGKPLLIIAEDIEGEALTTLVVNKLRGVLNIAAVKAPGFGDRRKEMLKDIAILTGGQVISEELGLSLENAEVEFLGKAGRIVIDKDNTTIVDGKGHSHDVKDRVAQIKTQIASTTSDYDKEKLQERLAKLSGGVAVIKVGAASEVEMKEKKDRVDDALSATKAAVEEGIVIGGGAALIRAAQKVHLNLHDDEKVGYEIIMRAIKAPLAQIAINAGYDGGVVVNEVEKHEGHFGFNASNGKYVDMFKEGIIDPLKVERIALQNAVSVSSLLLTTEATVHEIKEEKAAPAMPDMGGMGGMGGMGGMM
Method: as §1

Sequence of H. pylori urease (oligomeric, purified) (P14916 whole entry, chain 1 of 2): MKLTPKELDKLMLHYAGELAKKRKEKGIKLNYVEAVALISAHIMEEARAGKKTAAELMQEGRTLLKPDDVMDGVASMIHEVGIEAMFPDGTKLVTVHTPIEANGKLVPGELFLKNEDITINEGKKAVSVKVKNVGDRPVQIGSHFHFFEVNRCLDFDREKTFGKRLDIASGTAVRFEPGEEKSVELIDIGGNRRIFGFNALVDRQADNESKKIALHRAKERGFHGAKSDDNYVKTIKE
Sequence of H. pylori urease (oligomeric, purified) (P69996 whole entry, chain 2 of 2): as the sequence (P69996 whole entry) above

B1: HP8m/4H5-D4-C9 (antibody, V domains shown)
VH: VQLLEQSGAELVKPGASVKISCKASGYAFSTSWMNWVKQRPGKGLEWIGRIYPGDGDTNYNGKFKGKATLTADKSSSTAYMQLNSLTSEDSAVYFCVREDAYYSNPYSLDYWGQGTSVTVSS
VL: DILLTQSPAILSVSPGERVSFSCRASQSIGTRIHWYQQRTNGSPRLLIKYGSESISGIPSRFSGSGSGTDFSLSINSVESEDIADYYCQQSNTWPLTFGAGTKLELK
notes: also called DSM ACC2360; first monoclonal antibody that is specific to urease
koff [1]: 4.5e-06 s⁻¹
NWG (detection limit) [2]: 0.6 ng Ag/ml

B2: HP15m/3E8-D9-D6 (antibody, IgG1, V domains shown)
VH: VQLLEESGGGLVQPTGSLKLSCAASGFTFNSYAMYWVRQAPGKGLEWVARIRSKSDNYATYYANSVKDRLTISRDDSQNMLYLQMNNLKTEDTAMYYCVRDHDKFPFYYALDYWGPGTLVTVSS
VL: ELVLTQSPTIMSASLGERVTMTCTASSSVSSSYLHWYQQKPGSSPKLWIYSTSNLASGVPVRFSGSGSVTSYSLTISSMEAEDAATYYCHQYHRSPPTFGGGTKLEIK
notes: Murine; also called DSM ACC2355
NWG (detection limit) [3]: 0.6 ng Ag/ml

B3: HP16m/2A5-E6-E5 (antibody, mouse IgG1, V domains shown)
VH: VQLLEESGPGLVAPSQSLSITCTVSGFSLSRYSVHWVRQPPGKGLEWLGMIWGGGSTDYNSGLKSRLSISNDNSKSQVFLKMNSLQTDDTAIYYCARNMGGRYPDYFDYWGQGTTLTVSS
VL: DIVLTQSPASLAVSLGQRATISCRASKSVSTSGYSYIHWYQQKPGQPPKLLIFLASNLESGVPARFSGSGSGTDFTLNIHPVEEEDAATYHCQHSRELPLTFGAGTKLELK
notes: also called DSM ACC2356
NWG (detection limit) (Hsp60 of H. pylori): 3 ng Ag/ml

B4: HP9.1m/3C2-F8-E2 (antibody, mouse IgG1, V domains shown)
VH: VQLLEESGGGLVKPGGSLQLSCSASGFTFSSHFMSWVRQTPEKRLEWVASISSGGDSFYPDSLKGRFAISRDNARNILFLQMSSLRSEDSAMYFCTRDYSWYALDYWGQGTSVTVSS
VL: ELQMTQSPSSLSASLGDTITITCHASQNINVWLSWYQQKPGDIPKLLIYKASNLHTGVPSRFSGSGSGTGFTLVISSLQPEDIATYYCQQGRSYPLTFGAGTKLELK
notes: also called DSM ACC2362; second monoclonal antibody that is specific to urease
NWG (detection limit) [2]: 1.2 ng Ag/ml
